Assay results: the RNAGym collection of RNA variant scans (doi:10.7554/elife.80360)

B1: HDV Ribozyme (parent)
chain: GGCCGGCAUGGUCCCAGCCUCCUCGCUGGCGCCGGCUGGGCAACAUUCCGAGGGGACCGUCCCCUCGGUAAUGGCGAAUGGGACCCA

Variants of: B1
Test: self-cleavage, relative activity (ratio to wild type); higher = more cleavage; co-transcriptional

Point of comparison: A45G G55C, self-cleavage 1.04. Against it:
- A45C G68C — lower, 0.404
- A45C G68A — lower, 0.686
- A45C U69G — lower, 0.974
- A45C U69C — lower, 0.623
- A45G A78C — lower, 0.237
- A45G A78G — lower, 0.617
- A45U C75U — lower, 0.321
- A45U C75G — lower, 0.133
- A45U C75A — lower, 0.277
- A45G C75U — lower, 0.208
- A45G C75G — lower, 0.0536
- A45G C75A — lower, 0.249
- C44U U65C — lower, 0.61
- C44U U65A — lower, 0.846
- A45C G73C — lower, 0.424
- A45U G59C — lower, 0.969
- A45U G59U — lower, 0.903
- A45U G59A — lower, 1
- A45C — lower, 0.702
- A45G — lower, 0.918
- A45U — lower, 0.832
- A45U U79A — lower, 0.192
- A45U U79C — lower, 0.26
- U46A C49U — lower, 0.739
- U46A C49G — lower, 0.415
- A45U C49G — lower, 0.458
- A45U C49A — lower, 0.748
- A45G G80A — lower, 0.177
- A45G U47A — higher, 1.13
- A45G A56U — higher, 1.12
- A45U U60A — lower, 0.723
- A45U U60C — lower, 0.911
- U46A — lower, 0.794
- U46C — lower, 0.815
- A45U G82A — lower, 0.162
- A45U G82U — lower, 0.529
- A45U A71U — lower, 1.01
- A45U A71C — lower, 0.653
- U46A A56G — lower, 0.831
- U46A A56C — lower, 0.802
- U46A A56U — lower, 0.704
- U46C G53A — lower, 0.796
- U46C G53C — lower, 0.739
- A45C G55C — lower, 0.48
- A45U C58G — lower, 0.712
- A45U C58U — lower, 0.849
- U46A U79G — lower, 0.322
- U46A U79A — lower, 0.504
- A45G C62G — lower, 0.587
- A45U G67U — lower, 0.801
- C44U G76U — lower, 0.847
- C44U U72G — lower, 0.665
- U46A C57U — lower, 0.657
- U46A C57A — lower, 0.851
- A45U G52U — lower, 0.674
- A45U G52C — lower, 0.743
- A45U G52A — lower, 0.798
- C44U U69G — lower, 0.957
- A45G G54U — higher, 1.17
- U46C A51C — lower, 0.504
- U46C A51G — lower, 0.639
- U46C A51U — lower, 0.846
- U46A U69C — lower, 0.779
- A45G G74U — lower, 0.543
- C44U C86A — lower, 0.716
- C44U C86U — lower, 0.886
- A45C U72C — lower, 0.481
- U46C A56U — higher, 1.09
- U46C C86A — lower, 0.849
- U46A G74C — lower, 0.297
- A45G A83U — lower, 0.485
- U46A G55A — lower, 0.716
- A45G G82C — lower, 0.391
- A45G G82A — lower, 0.415
- U46C C62U — lower, 0.918
- U46C C62A — lower, 0.623
- A45U G54C — lower, 0.849
- A45U G54U — lower, 0.8
- U46A C86G — lower, 0.831
- A45G G55U — lower, 0.888
- A45G G55A — higher, 1.08
- U46C C57U — lower, 0.705
- A45U G74C — lower, 0.0923
